From article PMC11093223, “Cargo selective vesicle tethering: The structural basis for binding of specific cargo proteins by the Golgi tether component TBC1D23” (Science Advances, 2024)
pKd: −log10 of the molar value.

Legend:
[1] = molecular target: TBC1D23 C-terminal domain (mouse) (UniProt Q8K0F1); assay: ITC; peptide (0.8 to 5 mM) titrated into 100 μM TBC1D23 C-terminal domain, 20°C, 100 mM NaCl, 100 mM tris pH 7.4, 1 mM TCEP, Nano ITC
[2] = molecular target: Mouse TBC1D23 (559-684), C-terminal domain (mouse) (UniProt Q8K0F1); assay: ITC; peptide (0.8 to 5 mM) titrated into 100 uM TBC1D23 C-terminal domain, 20 injections of 2.4 ul; 20°C; 100 mM NaCl, 100 mM tris pH 7.4, 1 mM TCEP; mean of three runs
Chain of Mouse TBC1D23 (559-684), C-terminal domain (mouse) (Q8K0F1 559-684): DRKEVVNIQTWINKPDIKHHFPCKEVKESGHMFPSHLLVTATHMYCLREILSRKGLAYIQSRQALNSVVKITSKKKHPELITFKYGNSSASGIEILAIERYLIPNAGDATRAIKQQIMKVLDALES

Chain of TBC1D23 C-terminal domain (mouse) (Q8K0F1 559-684): as above

pKd [1]	stoichiometry N [1]	pKd [2]	Substance
4.97	1		CPD peptide (acidic TLY region, ITC)
4.80			FAM174C peptide (TLY-like motif)
		4.80	FAM174C peptide with the acidic TLY motif
4.46			KIAA0319 peptide (acidic TLY motif of the tail)
		4.45	KIAA0319 peptide with the acidic TLY motif
5.52			NPDC1 peptide (acidic TLY motif of the tail)
		5.54	NPDC1 peptide with the acidic TLY motif
